Results from US20230158141A1 (YAFEI SHANGHAI BIOLOG MEDICINE SCIENCE AND TECHNOLOGY, published 2023).
Changes are numbered by the printed parent chain. Numbers in names are those of the source.

T1: IL-10R2-Fc/His (UniProt Q08334 20-220, limits assumed)
T1 sequence (looked up): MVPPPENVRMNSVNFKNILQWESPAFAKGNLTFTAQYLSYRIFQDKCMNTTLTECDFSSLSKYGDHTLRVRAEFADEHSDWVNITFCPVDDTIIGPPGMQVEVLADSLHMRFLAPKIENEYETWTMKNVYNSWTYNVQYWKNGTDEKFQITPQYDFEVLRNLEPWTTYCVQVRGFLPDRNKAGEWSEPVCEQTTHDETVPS

T2: IL-10R1-Fc (UniProt Q13651 22-235, limits assumed)
T2 sequence (looked up): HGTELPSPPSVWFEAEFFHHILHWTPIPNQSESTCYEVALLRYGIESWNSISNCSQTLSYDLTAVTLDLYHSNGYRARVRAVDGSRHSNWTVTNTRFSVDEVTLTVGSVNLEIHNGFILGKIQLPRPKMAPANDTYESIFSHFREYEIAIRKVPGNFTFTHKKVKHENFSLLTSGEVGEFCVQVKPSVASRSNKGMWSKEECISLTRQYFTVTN

B1: IL-10 Asn21Cys-S48 (ligand, human, UniProt P22301 19-178, looked up)
chain: SPGQGTQSENSCTHFPGNLPCMLRDLRDAFSRVKTFFQMKDQLDNLLLKESLLEDFKGYLGCQALSEMIQFYLEEVMPQAENQDPDIKAHVNSLGENLKTLRLRLRRCHRFLPCENKSKAVEQVKNAFNKLQEKGIYKAMSEFDIFINYIEAYMTMKIRN
modifications: S48 on Cys 21
notes: mature
B2: IL-10 Arg107Cys-R4-20 (ligand, human, UniProt P22301 19-178, looked up)
chain: B1 chain with C21N, R107C
modifications: R4-20 on Cys 107
notes: mature
B3: IL-10 Thr35Cys-S48 (ligand, human, UniProt P22301 19-178, looked up)
chain: B1 chain with C21N, T35C
modifications: S48 on Cys 35
notes: mature
B4: IL-10 Thr100Cys-R4-7 (ligand, human, UniProt P22301 19-178, looked up)
chain: B1 chain with C21N, T100C
modifications: R4-7 on Cys 100
notes: mature
B5: IL-10 His90Cys-S48 (ligand, human, UniProt P22301 19-178, looked up)
chain: B1 chain with C21N, H90C
modifications: S48 on Cys 90
notes: mature
B6: IL-10 Arg104Cys-R4-20 (ligand, human, UniProt P22301 19-178, looked up)
chain: B1 chain with C21N, R104C
modifications: R4-20 on Cys 104
notes: mature
B7: IL-10 Met22Cys-S48 (ligand, human, UniProt P22301 19-178, looked up)
chain: B1 chain with C21N, M22C
modifications: S48 on Cys 22
notes: mature
B8: IL-10 Asn18Cys-R4-18 (ligand, human, UniProt P22301 19-178, looked up)
chain: B1 chain with N18C, C21N
modifications: R4-18 on Cys 18
notes: mature
B9: IL-10 Asp25Cys-S48 (ligand, human, UniProt P22301 19-178, looked up)
chain: B1 chain with C21N, D25C
modifications: S48 on Cys 25
notes: mature
B10: IL-10 Asn97Cys-S48 (ligand, human, UniProt P22301 19-178, looked up)
chain: B1 chain with C21N, N97C
modifications: S48 on Cys 97
notes: mature
B11: IL-10 Lys34Cys-S48 (ligand, human, UniProt P22301 19-178, looked up)
chain: B1 chain with C21N, K34C
modifications: S48 on Cys 34
notes: mature; also called IL10-K34C-S48
B12: IL-10 Lys130Cys-S48 (ligand, human, UniProt P22301 19-178, looked up)
chain: B1 chain with C21N, K130C
modifications: S48 on Cys 130
notes: mature
B13: IL-10 Ser31Cys-R4-2 (ligand, human, UniProt P22301 19-178, looked up)
chain: B1 chain with C21N, S31C
modifications: R4-2 on Cys 31
notes: mature
B14: IL-10 Lys119Cys-R4-7 (ligand, human, UniProt P22301 19-178, looked up)
chain: B1 chain with C21N, K119C
modifications: R4-7 on Cys 119
notes: mature
B15: IL-10 Ser31Cys-S48 (ligand, human, UniProt P22301 19-178, looked up)
chain: B1 chain with C21N, S31C
modifications: S48 on Cys 31
notes: mature
B16: IL-10 Lys34Cys-R4-7 (ligand, human, UniProt P22301 19-178, looked up)
chain: B1 chain with C21N, K34C
modifications: R4-7 on Cys 34
notes: mature
B17: IL-10 Thr100Cys-S48 (ligand, human, UniProt P22301 19-178, looked up)
chain: B1 chain with C21N, T100C
modifications: S48 on Cys 100
notes: mature
B18: IL-10 His90Cys-R4-19 (ligand, human, UniProt P22301 19-178, looked up)
chain: B1 chain with C21N, H90C
modifications: R4-19 on Cys 90
notes: mature
B19: IL-10 Arg32Cys-S48 (ligand, human, UniProt P22301 19-178, looked up)
chain: B1 chain with C21N, R32C
modifications: S48 on Cys 32
notes: mature
B20: IL-10 Asn97Cys-R4-18 (ligand, human, UniProt P22301 19-178, looked up)
chain: B1 chain with C21N, N97C
modifications: R4-18 on Cys 97
notes: mature
B21: IL-10 Lys119Cys-S48 (ligand, human, UniProt P22301 19-178, looked up)
chain: B1 chain with C21N, K119C
modifications: S48 on Cys 119
notes: mature
B22: IL-10 Met22Cys-R4-1 (ligand, human, UniProt P22301 19-178, looked up)
chain: B1 chain with C21N, M22C
modifications: R4-1 on Cys 22
notes: mature
B23: IL-10 Lys130Cys-R4-7 (ligand, human, UniProt P22301 19-178, looked up)
chain: B1 chain with C21N, K130C
modifications: R4-7 on Cys 130
notes: mature
B24: anti-PD-1 antibody 2 HC Thr69Cys (antibody, human IgG4 S228P, kappa, V domains shown)
VH: QVQLVESGGGVVQPGRSLRLDCKASGITFSNSGMHWVRQAPGKGLEWVAVIWYDGSKRYYADSVKGRFCISRDNSKNTLFLQMNSLRAEDTAVYYCATNDDYWGQGTLVTVSS
VL: EIVLTQSPATLSLSPGERATLSCRASQSVSSYLAWYQQKPGQAPRLLIYDASNRATGIPARFSGSGSGTDFTLTISSLEPEDFAVYYCQQSSNWPRTFGQGTKVEIKR
modifications: arm on Cys69 as named in each row
B25: anti-PD-1 antibody 2 HC Gly10Cys (antibody, human IgG4 S228P, kappa, V domains shown)
VH: B24 VH with G10C, C69T
VL: B24 VL
modifications: arm on Cys10 as named in each row
B26: anti-PD-1 antibody 1 light chain G28C (antibody, human IgG4 S228P, kappa, V domains shown)
VH: QVQLVQSGVEVKKPGASVKVSCKASGYTFTNYYMYWVRQAPGQGLEWMGGINPSNGGTNFNEKFKNRVTLTTDSSTTTAYMELKSLQFDDTAVYYCARRDYRFDMGFDYWGQGTTVTVSS
VL: EIVLTQSPATLSLSPGERATLSCRASKCVSTSGYSYLHWYQQKPGQAPRLLIYLASYLESGVPARFSGSGSGTDFTLTISSLEPEDFAVYYCQHSRDLPLTFGGGTKVEIKR
notes: also called PD-1-Ab1-Gly28Cys; PD1 Ab-C28
B27: anti-PD-1 antibody 1 light chain S60C (antibody, human IgG4 S228P, kappa, V domains shown)
VH: B26 VH
VL: B26 VL with C28G, S60C
B28: anti-PD-1 antibody 1 light chain S26C (antibody, human IgG4 S228P, kappa, V domains shown)
VH: B26 VH
VL: B26 VL with S26C, C28G
B29: anti-PD-1 antibody 1 light chain S30C (antibody, human IgG4 S228P, kappa, V domains shown)
VH: B26 VH
VL: B26 VL with C28G, S30C
B30: anti-PD-1 antibody 1 light chain S32C (antibody, human IgG4 S228P, kappa, V domains shown)
VH: B26 VH
VL: B26 VL with C28G, S32C
B31: anti-PD-1 antibody 1 light chain S56C (antibody, human IgG4 S228P, kappa, V domains shown)
VH: B26 VH
VL: B26 VL with C28G, S56C
B32: anti-PD-1 antibody 1 light chain S35C (antibody, human IgG4 S228P, kappa, V domains shown)
VH: B26 VH
VL: B26 VL with C28G, S35C
B33: anti-PD-1 antibody 1 light chain G33C (antibody, human IgG4 S228P, kappa, V domains shown)
VH: B26 VH
VL: B26 VL with C28G, G33C
B34: anti-PD-1 antibody 1 light chain S95C (antibody, human IgG4 S228P, kappa, V domains shown)
VH: B26 VH
VL: B26 VL with C28G, S95C
B35: anti-PD-1 antibody 1 light chain G61C (antibody, human IgG4 S228P, kappa, V domains shown)
VH: B26 VH
VL: B26 VL with C28G, G61C
B36: anti-PD-1 antibody 2 light chain A34C (antibody, human IgG4 S228P, kappa, V domains shown)
VH: B24 VH with C69T
VL: B24 VL with A34C
B37: anti-PD-1 antibody 2 light chain G57C (antibody, human IgG4 S228P, kappa, V domains shown)
VH: B24 VH with C69T
VL: B24 VL with G57C
B38: anti-PD-1 antibody 2 light chain S26C (antibody, human IgG4 S228P, kappa, V domains shown)
VH: B24 VH with C69T
VL: B24 VL with S26C

Target: T1, IL-10R2-Fc/His
Assay: ELISA, IL-10R2-Fc/His coated

Point of comparison: B1, “Decreased fold of binding to ligand after Conjugating with S48” value 6 fold. Against it:
- B3 — the same, 6 fold
- B5 — higher, 7 fold
- B7 — the same, 6 fold
- B9 — lower, 5 fold
- B10 — lower, 4 fold
- B11 — lower, 5 fold
- B12 — lower, 3 fold
- B15 — higher, 7 fold
- B17 — higher, 8 fold
- B19 — higher, 9 fold
- B21 — lower, 4 fold

Point of comparison: B6, “Binding recovery (>60%)” value 96.6%. Against it:
- B2 — lower, 84%
- B4 — lower, 90.7%
- B8 — higher, 99.8%
- B13 — lower, 87.4%
- B14 — higher, 106%
- B16 — higher, 97.3%
- B18 — lower, 79%
- B20 — lower, 80.7%
- B22 — lower, 80%
- B23 — higher, 99.7%

Target: PD-1 (UniProt Q15116 25-167, limits assumed)
Assay: ELISA; S9 on the Cys
Target sequence in this assay (Q15116 25-167 limits assumed): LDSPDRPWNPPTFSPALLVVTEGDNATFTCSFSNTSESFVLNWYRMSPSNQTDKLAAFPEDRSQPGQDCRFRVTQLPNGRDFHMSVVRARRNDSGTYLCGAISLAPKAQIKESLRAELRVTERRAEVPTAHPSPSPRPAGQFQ

Point of comparison: B25, “binding activity, % of wild type” value 69.3%. Against it:
- B24 — higher, 78.6%

Target: T2, IL-10R1-Fc
Assay: ELISA, IL-10R1-Fc coated

Point of comparison: B12, “Decreased fold of binding to ligand after Conjugating with S48” value 3 fold. Against it:
- B1 — higher, 7 fold
- B3 — higher, 36 fold
- B5 — higher, 8 fold
- B7 — higher, 5 fold
- B9 — the same, 3 fold
- B10 — higher, 5 fold
- B11 — higher, 50 fold
- B15 — higher, 39 fold
- B17 — higher, 4 fold
- B19 — higher, 13 fold
- B21 — the same, 3 fold

Point of comparison: B14, “Binding recovery (>60%)” value 99%. Against it:
- B2 — higher, 99.5%
- B4 — higher, 99.3%
- B6 — lower, 98.5%
- B8 — lower, 92.3%
- B13 — higher, 125%
- B16 — higher, 99.6%
- B18 — lower, 86.5%
- B20 — lower, 94.5%
- B22 — lower, 96.8%
- B23 — higher, 100%

Target: PD-1 (UniProt Q15116 25-167, limits assumed)
Assay: ELISA, OD mutant/OD WT; A=90-110%
Target sequence in this assay (Q15116 25-167 limits assumed): as above

B26 and B27 fall in the same range of “binding activity (OD after mutation/OD wild type)” value: 90 to 110% for the first, 90 to 110% for the second.

B28 and B29 fall in the same range of “binding activity (OD after mutation/OD wild type)” value: 90 to 110% for the first, 90 to 110% for the second.

B30 and B31 fall in the same range of “binding activity (OD after mutation/OD wild type)” value: 90 to 110% for the first, 90 to 110% for the second.

B32 and B33 fall in the same range of “binding activity (OD after mutation/OD wild type)” value: 90 to 110% for the first, 90 to 110% for the second.

B34 and B35 fall in the same range of “binding activity (OD after mutation/OD wild type)” value: 90 to 110% for the first, 90 to 110% for the second.

B36 and B37 fall in the same range of “binding activity (OD after mutation/OD wild type)” value: 90 to 110% for the first, 90 to 110% for the second.

For B38, the “binding activity (OD after mutation/OD wild type)” value was 90 to 110%.
